Reference: PMC2196230 (The Journal of Experimental Medicine, 1997)

Molecular target: the molecule itself
Experiment: SEC

B1: recombinant soluble signaling lymphocytic activation molecule (sSLAM) with a Flag sequence at the carboxy terminus (natural protein, human, UniProt Q13291-3 21-305, looked up)
chain: ASYGTGGRMMNCPKILRQLGSKVLLPLTYERINKSMNKSIHIVVTMAKSLENSVENKIVSLDPSEAGPPRYLGDRYKFYLENLTLGIRESRKEDEGWYLMTLEKNVSVQRFCLQLRLYEQVSTPEIKVLNKTQENGTCTLILGCTVEKGDHVAYSWSEKAGTHPLNPANSSHLLSLTLGPQHADNIYICTVSNPISNNSQTFSPWPGCRTDPSGKTNHYQTTVEKKSLTIYAQVQKPGPLQKKLDSFPAQDPCTTIYVAATEPVPESVQETNSITVYASVTLPES
Q: With B1 as the protein, how does the “stoichiometry N” value read?
A: 2
